The target in the data set is T1, RepTrixie immunity repressor (Mycobacteriophage Trixie, UniProt G1JV33 1-192).
T1 sequence: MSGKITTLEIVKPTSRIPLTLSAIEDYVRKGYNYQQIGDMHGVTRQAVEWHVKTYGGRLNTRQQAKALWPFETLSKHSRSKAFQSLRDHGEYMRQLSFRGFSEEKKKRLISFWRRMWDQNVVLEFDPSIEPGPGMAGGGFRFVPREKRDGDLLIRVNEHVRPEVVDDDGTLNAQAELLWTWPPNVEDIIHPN
Description: EMSA; EMSA on 8% polyacrylamide gel, serially diluted Rep with 5'-32P 30-bp dsDNA; binding buffer and temperature not given (ref. 54); protein storage buffer 50 mM Tris pH 8.0, 150 mM NaCl, 0.1 mM EDTA, 0.1 mM DTT, 50% glycerol. The note with it: protein: recombinant; chain copies: 2; label: 5' 32P; blunt.

B1: Trixie stoperator 30-bp (dsDNA)
DNA 1: TGAGCAGTACTTGACATTCACCAGGTTGGG
DNA 2: CCCAACCTGGTGAATGTCAAGTACTGCTCA
Consider B1, for which the dissociation constant Kd is about 6.48 nM.

B2: RedRock stoperator 30-bp (dsDNA)
DNA 1: TAAGGCGAACTTGACATCCACCGGGTTGGG
DNA 2: CCCAACCCGGTGGATGTCAAGTTCGCCTTA
B2: the Kd was about 6.48 nM.
